Biological target: yeast-displayed unmodified gp140 from HIV strain YU2, fused at its C-terminal to Aga2p (HIV-1 group M subtype B, isolate YU-2, UniProt P35961, strain)
Experiment: flow cytometry on cells; yeast cells displaying YU2 Env-Aga2p fusions incubated with 100 nM precursor antibody at 4°C for 16-18 h in PBI (PBS pH 7.2, 1% BSA, protease inhibitors); fluorescent secondary antibody
Details: one partner purified

B1: reconstructed predicted precursor form of antibody 447-52D (antibody, V domains shown)
VH: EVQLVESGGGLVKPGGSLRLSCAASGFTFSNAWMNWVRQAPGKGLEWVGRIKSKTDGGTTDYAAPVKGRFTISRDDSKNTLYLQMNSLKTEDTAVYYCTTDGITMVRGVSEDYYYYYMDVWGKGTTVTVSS
VL: QSVLTQPPSVSAAPGQKVTISCSGSSSNIGNNYVSWYQQLPGTAPKLLIYDNNKRPSGIPDRFSGSKSGTSATLGITGLQTGDEADYYCGTWDSSLSAGWVFGGGTKLTVL
notes: V(D)J segments with the highest identity to mature 447-52D (IgBLAST), mature HCDR3 kept; Detected with anti-human secondary antibodies; also called precursor for antibody 447-52D; 447-52D precursor; source: HEK293T, transfected, purified
binding result: no binding (tested: 100 nM)

B2: reconstructed predicted precursor form of antibody VRC01 (antibody, V domains shown)
VH: not shown
VL: EIVLTQSPATLSLSPGERATLSCRASQSVSSYLAWYQQKPGQAPRLLIYDASNRATGIPARFSGSGSGTDFTLTISSLEPEDFAVYYCQQRSNWPYTFGQGTKLEIK
notes: V(D)J segments with the highest identity to mature VRC01 (IgBLAST), mature HCDR3 kept; Detected with anti-human secondary antibodies; also called precursor for antibody VRC01; VRC01 precursor; source: HEK293T, transfected, purified
binding result: no binding (tested: 100 nM)

Source: article PMC6193675 (PLoS ONE, 2018)
